The values below come from the supplement of paper PMC9170038.

This data set concerns K4 kissing-loop RNA reporter. Put plainly: apparent KD of K4 kissing-loop reporter; higher = weaker reporter binding. The following applies: Eterna round: R107. As for the experimental part:
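RNA-MaP round R107: designed RNA switches with theophylline, tryptophan, arginine or FMN aptamers are transcribed on-chip within common flanks. They are titrated with a labelled K4 kissing-loop RNA reporter in RNA-MaP buffer (100 mM Tris pH 7.5, 80 mM KCl, 4 mM MgCl2), without ligand or with the indicated ligand. Median apparent KD per design.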

The mark [1] stands for this setting: input ligand: theophylline 20 uM.
Where [2] appears, read: input ligand: tryptophan 2.4 mM.
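Note: bound reporter read as fluorescence of individual clusters on recovered sequencing chips by microscopy, with normalized cluster intensities fitted with a binding model.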

In the case of “AAAAUAAACCAGUGAUGUUGGUGUCCGGAUACCAGCGAUAAUCAUCGCCCUUGGCAGCCGCGGACGUACAAAAUAAGUACGUCCU [MatMod 13 - Jieux - Same State - Theophylline A]”, the “apparent KD of K4 kissing-loop reporter” value is, setting by setting: (input ligand: FMN 200 uM) 457 nM; (input ligand: arginine 13.2 mM) 271 nM; (input ligand: none) 346 nM; under setting [1], 310 nM; under setting [2], 256 nM.
For “AAAAUAAAGCAGUGAUGUUGCUUAUGAGAAGGAGCGCACGAAAGUGCAGGUAGGUCGCUCAGCCAAGUGGACGAAAACGUCCACA [#OpenEnded 10 #K4Early]”, the “apparent KD of K4 kissing-loop reporter” value came out at 112 nM (input ligand: FMN 200 uM); 122 nM (input ligand: arginine 13.2 mM); 123 nM (input ligand: none); 144 nM under setting [1]; 90.4 nM under setting [2].
In the case of “AAAAUAAGCCAGUGAUGUUGGGAUCCAGAUACCAGCGACGAAAGUCGCCCUUGGCAGCUGUGGACGUACAAAAUAAGUACGUCCU”, the “apparent KD of K4 kissing-loop reporter” value stood at 924 nM (input ligand: FMN 200 uM); 706 nM (input ligand: arginine 13.2 mM); 1040 nM (input ligand: none); 927 nM under setting [1]; 992 nM under setting [2].
Regarding “AAAAUUAACAAGAGUGAUGUUCUUGUUAGACAGGAUAUCGGUUUAACGAGAAGGGUCGUGGCUCCAUUGGGCCCAGUGGUUCACC [Mazareri]”, the “apparent KD of K4 kissing-loop reporter” value is 309 nM (input ligand: FMN 200 uM); 478 nM (input ligand: arginine 13.2 mM); 687 nM (input ligand: none); 326 nM under setting [1]; 439 nM under setting [2].
The corresponding values for “AAACAACUUGACGAUACCAGCUUACUCGGCAAGCCAGUGAUGUUGGUGAAAAGGAGUCAAAGCCCUUGGCAGCGUCGAAGGUCUG [Raatarerin]” are 271 nM, 240 nM, 304 nM, 119 nM and 258 nM.
On the same counts, the results for “AAACGCUUGAAUAACAAGCGAAAUAAAAUUCGAGGACCGGUACGGCCGCCACUCGGGCUAACUGCGAGUGAUGUUCGAAAAUAAA [Mat - Mod of OpenEnded 3 - D17]” are 156 nM, 191 nM, 257 nM, 405 nM and 73.2 nM.
As for “AAACGUUGUUGCGAUACCAGCUGAUCGGAAACGAUCAUGCUGGAGUGAUGUUCCAGGAAAAGCCCUUGGCAGCGCAACGACGAAA [MAT - Same State Theophlline B - Mod of Eli - D30]”, the “apparent KD of K4 kissing-loop reporter” value is 276 nM (input ligand: FMN 200 uM); 134 nM (input ligand: arginine 13.2 mM); 228 nM (input ligand: none); 296 nM under setting [1]; 179 nM under setting [2].
“AAACUACGUGACGAUACCAGCUUACUCGGCAAGCCAGUGAUGUUGGUGAAAAGGAGUCAAAGCCCUUGGCAGCGUCGAAGGUUUG [Usandiat]”: the “apparent KD of K4 kissing-loop reporter” value is 257 nM (input ligand: FMN 200 uM); 215 nM (input ligand: arginine 13.2 mM); 252 nM (input ligand: none); 129 nM under setting [1]; 255 nM under setting [2].
For “AAACUUGCAGUGAUGUUGCAAGUAGGUGAUACCAGCAUCGAAAGAUGCCCUUGGCAGCACCAACACUGUAAGUAAGUAUCACCAA [(H1)-(H2)-(T1)-(T2)-(H)'-(T)'_Design2]”, the “apparent KD of K4 kissing-loop reporter” value is 110 nM (input ligand: FMN 200 uM); 120 nM (input ligand: arginine 13.2 mM); 117 nM (input ligand: none); 139 nM under setting [1]; 105 nM under setting [2].
“AAACUUGCAGUGAUGUUGCAAGUAGGUGAUACCAGCAUCGAAAGAUGCCCUUGGCAGCACCAUCACUGUAAGUAGGUGCUGUCAA [(H1)-(H2)-(T1)-(T2)-(H)'-(T)'_Design5]”: the “apparent KD of K4 kissing-loop reporter” value (input ligand: FMN 200 uM) amounted to 99.3 nM; the “apparent KD of K4 kissing-loop reporter” value (input ligand: arginine 13.2 mM) stood at 88.5 nM; the “apparent KD of K4 kissing-loop reporter” value (input ligand: none) was found to be 105 nM; the “apparent KD of K4 kissing-loop reporter” value under setting [1] was found to be 111 nM; the “apparent KD of K4 kissing-loop reporter” value under setting [2] stood at 103 nM.
As for “AAAGAUCUUCUAGAAACUAGAAGAUCAAGAGAGGAUAUCCGAAUUCGGAGAAGGCUCACUAAGUGAUGUUUGGACCCAAAGGGAA [AK3 SS FMN A]”, the “apparent KD of K4 kissing-loop reporter” value (input ligand: FMN 200 uM) was 1460 nM; the “apparent KD of K4 kissing-loop reporter” value (input ligand: arginine 13.2 mM) turned out to be 1520 nM; the “apparent KD of K4 kissing-loop reporter” value (input ligand: none) amounted to 1650 nM; the “apparent KD of K4 kissing-loop reporter” value under setting [1] amounted to 1600 nM; the “apparent KD of K4 kissing-loop reporter” value under setting [2] came out at 1030 nM.
The corresponding values for “AAAGUGUCAGCACGAGUGAUGUUCGUGGAUACCAGCCUCGAUAAAGGCCCUUGGCAGCCGAAAAGUCAAGGGCUGGCACAUAAAA [KL-XTheo-A11]” are 216 nM, 205 nM, 251 nM, 341 nM and 226 nM.
On to “AAAUAAAUCACGGCCGCCACUGUAAGUUGAAGUGAUGUUUCAAGAUAUAGUAUGUUUUAUAAUAUCAGGACCGGGUGAUUUUUAA [JR_SSTryptoB_Sub021]”, for which the “apparent KD of K4 kissing-loop reporter” value is, setting by setting: (input ligand: FMN 200 uM) 147 nM; (input ligand: arginine 13.2 mM) 103 nM; (input ligand: none) 133 nM; under setting [1], 115 nM; under setting [2], 119 nM.
As for “AAAUAAAUCAGAGGAUAUUCUUCCCACGUCGAAGUACCGUGCUUGAUGGAGUGAUGUUCGAUCAGAGAAGAAGGCUGAUAAAUAA [Same State FMN B GF 19]”, the “apparent KD of K4 kissing-loop reporter” value is 732 nM (input ligand: FMN 200 uM); 395 nM (input ligand: arginine 13.2 mM); 917 nM (input ligand: none); 621 nM under setting [1]; 338 nM under setting [2].
